According to patent US20240409620A1 (CENTER FOR EXCELLENCE IN MOLECULAR CELL SCIENCE CHINESE …, published 2024):

Key:
[1] = target: T1, RSV/A/A2 pre-fusion F protein (respiratory syncytial virus RSV/A/A2, UniProt P03420 26-109); test: BLI (Octet RED96), antibody captured on AHC sensor; reference Palivizumab
T1 construct: also called RSV A2 pre-fusion F protein; pre-F of RSV type A

[2] = target: T2, RSV/B/B9320 pre-fusion F protein (respiratory syncytial virus RSV/B/B9320); test: as above
T2 construct: also called pre-F of RSV type B; recombinant DS-Cav1

[3] = target: RSV/A/A2 fusion protein F on the virus (respiratory syncytial virus RSV/A/A2, UniProt P03420 26-574); test: cell-based or functional assay
[4] = target: T1, RSV/A/A2 pre-fusion F protein; test: BLI (Octet RED96), antibody captured on AHC sensor; reference MEDI8897
[5] = target: T2, RSV/B/B9320 pre-fusion F protein; test: as above

B1: 4F1En1 (VH-S75R) (antibody, V domains shown)
VH: QVQLVESGGGVVQPGRSLRLSCAASGFSFYSYSVHWVRQAPGKGLEWVADVVYDGNHQHYTDSVKGRFTISRDTRKNTVYLQMGSLRAEDTALYYCTARSLVITLAGAGRDDYWGQGTTVTVSS
VL: DIVMTQSPLSLPVTPGEPASISCRSSQSLLHSNGYTYLDWYLQKPGQSPQLLIFLGSSRASGVPDRFSGSGSGTDFTLKISRVEAEDVGVYYCVQDLQTSLTFGGGTKLEIKR
notes: It is a human IgG captured through Fc
[1]
  fold higher affinity compared to PVZ: ≥ 10 fold
[2]
  fold higher binding affinity compared to PVZ: ≥ 100 fold
[3]
  IC50 against RSV/A2, fold lower than palivizumab: 62 fold
  neutralization potency for RSV/A/A2 strain, fold against 4F1-WT: 3 times
[4]
  fold higher affinity compared to MEDI8897: ≥ 10 fold
[5]
  fold higher binding affinity compared to MEDI8897: ≥ 100 fold
